Data from publication PMC7261166.

Experiments:
Assay in all cases: fluorescence anisotropy
[1] = target: EWSR1 (UniProt Q01844 1-656)
[2] = target: T1, SA1 (STAG1) (UniProt Q8WVM7 1-1258)
T1 sequence: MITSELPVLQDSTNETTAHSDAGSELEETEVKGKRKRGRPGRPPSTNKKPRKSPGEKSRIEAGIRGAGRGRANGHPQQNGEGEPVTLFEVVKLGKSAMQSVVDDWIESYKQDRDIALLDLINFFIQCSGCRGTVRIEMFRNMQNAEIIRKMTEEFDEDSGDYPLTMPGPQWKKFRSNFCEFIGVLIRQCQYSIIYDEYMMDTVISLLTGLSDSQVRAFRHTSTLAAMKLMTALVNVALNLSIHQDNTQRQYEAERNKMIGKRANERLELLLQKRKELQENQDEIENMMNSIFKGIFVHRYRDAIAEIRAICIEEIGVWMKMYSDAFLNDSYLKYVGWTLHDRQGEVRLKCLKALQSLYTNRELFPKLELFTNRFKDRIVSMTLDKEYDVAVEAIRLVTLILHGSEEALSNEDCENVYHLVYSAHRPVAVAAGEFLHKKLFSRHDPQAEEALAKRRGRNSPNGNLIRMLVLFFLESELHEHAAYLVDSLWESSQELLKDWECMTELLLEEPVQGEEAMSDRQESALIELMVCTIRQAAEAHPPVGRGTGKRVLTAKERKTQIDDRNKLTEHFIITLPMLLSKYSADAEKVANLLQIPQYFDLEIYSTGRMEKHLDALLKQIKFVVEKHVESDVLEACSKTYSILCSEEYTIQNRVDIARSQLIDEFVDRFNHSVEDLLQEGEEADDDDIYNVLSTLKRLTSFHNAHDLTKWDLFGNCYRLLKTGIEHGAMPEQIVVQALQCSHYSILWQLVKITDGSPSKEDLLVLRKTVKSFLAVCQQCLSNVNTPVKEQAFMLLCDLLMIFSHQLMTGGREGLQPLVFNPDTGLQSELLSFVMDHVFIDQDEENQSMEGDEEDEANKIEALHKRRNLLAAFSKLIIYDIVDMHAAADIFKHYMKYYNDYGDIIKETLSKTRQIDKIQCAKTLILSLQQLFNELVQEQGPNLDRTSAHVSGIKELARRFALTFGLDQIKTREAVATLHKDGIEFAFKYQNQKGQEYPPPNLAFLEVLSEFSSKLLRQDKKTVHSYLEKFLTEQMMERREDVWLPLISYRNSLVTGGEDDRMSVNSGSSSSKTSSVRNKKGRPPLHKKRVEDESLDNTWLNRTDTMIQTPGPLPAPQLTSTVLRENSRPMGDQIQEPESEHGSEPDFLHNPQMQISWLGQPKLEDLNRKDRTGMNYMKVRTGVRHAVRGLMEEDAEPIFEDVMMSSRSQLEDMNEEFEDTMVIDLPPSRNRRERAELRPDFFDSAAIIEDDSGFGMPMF

[3] = target: T2, SA2 (STAG2) (UniProt Q8N3U4 1-1231)
T2 sequence: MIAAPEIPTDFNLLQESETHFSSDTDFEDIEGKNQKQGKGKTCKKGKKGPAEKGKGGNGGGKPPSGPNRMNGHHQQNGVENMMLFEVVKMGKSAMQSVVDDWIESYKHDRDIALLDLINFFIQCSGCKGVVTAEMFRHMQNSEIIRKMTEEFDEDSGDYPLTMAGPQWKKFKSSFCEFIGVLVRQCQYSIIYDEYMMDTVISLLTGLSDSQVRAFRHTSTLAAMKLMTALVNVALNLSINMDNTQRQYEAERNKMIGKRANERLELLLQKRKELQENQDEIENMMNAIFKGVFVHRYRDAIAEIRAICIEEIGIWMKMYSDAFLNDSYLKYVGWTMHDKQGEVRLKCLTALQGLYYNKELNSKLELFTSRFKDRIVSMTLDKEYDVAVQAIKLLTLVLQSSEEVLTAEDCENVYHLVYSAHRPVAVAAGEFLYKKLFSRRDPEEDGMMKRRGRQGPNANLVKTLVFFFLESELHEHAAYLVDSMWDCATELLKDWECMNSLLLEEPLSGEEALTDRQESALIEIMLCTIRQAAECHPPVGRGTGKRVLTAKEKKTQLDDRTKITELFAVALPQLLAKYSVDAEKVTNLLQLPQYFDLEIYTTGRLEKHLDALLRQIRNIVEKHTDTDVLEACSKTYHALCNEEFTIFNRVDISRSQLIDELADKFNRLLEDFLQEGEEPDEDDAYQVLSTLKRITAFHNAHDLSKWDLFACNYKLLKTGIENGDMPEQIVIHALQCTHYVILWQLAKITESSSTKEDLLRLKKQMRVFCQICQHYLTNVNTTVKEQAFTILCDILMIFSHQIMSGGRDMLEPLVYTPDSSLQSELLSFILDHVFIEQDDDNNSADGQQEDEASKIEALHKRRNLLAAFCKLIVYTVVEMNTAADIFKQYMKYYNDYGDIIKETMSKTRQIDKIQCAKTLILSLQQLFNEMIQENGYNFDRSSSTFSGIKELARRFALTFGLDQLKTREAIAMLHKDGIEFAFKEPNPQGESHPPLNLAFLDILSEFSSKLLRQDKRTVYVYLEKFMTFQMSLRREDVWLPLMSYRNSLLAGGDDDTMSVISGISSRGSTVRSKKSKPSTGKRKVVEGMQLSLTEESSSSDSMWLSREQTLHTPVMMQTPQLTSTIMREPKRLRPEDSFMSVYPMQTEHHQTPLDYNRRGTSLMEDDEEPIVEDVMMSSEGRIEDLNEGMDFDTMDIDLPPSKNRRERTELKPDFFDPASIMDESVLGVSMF

EWSR1, sequence (Q01844 whole entry): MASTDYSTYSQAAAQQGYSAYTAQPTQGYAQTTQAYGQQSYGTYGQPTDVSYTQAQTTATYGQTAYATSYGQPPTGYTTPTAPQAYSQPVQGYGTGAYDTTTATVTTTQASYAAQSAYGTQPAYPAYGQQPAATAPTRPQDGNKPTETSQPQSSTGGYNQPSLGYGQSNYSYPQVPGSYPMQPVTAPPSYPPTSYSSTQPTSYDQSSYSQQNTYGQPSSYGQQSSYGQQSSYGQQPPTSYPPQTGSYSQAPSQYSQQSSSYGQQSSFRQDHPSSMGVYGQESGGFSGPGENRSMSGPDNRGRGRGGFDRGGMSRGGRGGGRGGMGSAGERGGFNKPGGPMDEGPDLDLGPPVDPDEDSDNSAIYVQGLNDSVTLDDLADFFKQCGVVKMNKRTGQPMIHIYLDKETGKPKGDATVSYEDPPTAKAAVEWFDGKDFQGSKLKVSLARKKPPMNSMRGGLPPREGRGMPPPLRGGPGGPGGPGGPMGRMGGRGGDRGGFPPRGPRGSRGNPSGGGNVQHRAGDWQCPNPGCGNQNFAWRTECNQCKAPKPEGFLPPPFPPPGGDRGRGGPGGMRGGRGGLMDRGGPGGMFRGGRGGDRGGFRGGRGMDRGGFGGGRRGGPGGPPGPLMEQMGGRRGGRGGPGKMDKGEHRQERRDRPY

B1: Model R-loop (mixed)
RNA: GCAGCUGGCACGACAGGUAUGAAUC
DNA 1: GCCAGGGACGAGGTGAACCTGCAGGTGGGCGGCTACTACTTAGATGTCATCCGAGGCTTATTGGTAGAATTCGGCAGCGTCATGCGACGGC
DNA 2: GCCGTCGCATGACGCTGCCGAATTCTACCACGCGATTCATACCTGTCGTGCCAGCTGCTTTGCCCACCTGCAGGTTCACCTCGTCCCTGGC
- Kd [1]: 28.6 ± 0.8 nM
- Kd [2]: 38.4 ± 8.7 nM
- Kd [3]: 36 ± 4 nM

Binder: GCAGCUGGCACGACAGGUAUGAAUC (ssRNA) [25 nt RNA (R-loop oligo)]
- Kd [1]: 134.2 ± 0.04 nM
- Kd [2]: 164 ± 37.4 nM
- Kd [3]: 251 ± 3.2 nM

B2: 66 nt RNA-2 (ssRNA)
RNA: UCGAAUUCUUGUUCUACAUCAACACCCACACACCCAACCACUCACCCUUACACUGUACGGAUCCAG
- Kd [2]: 3 ± 0.1 nM
- Kd [3]: 5.1 ± 0.6 nM

B3: 66 nt RNA-1 (ssRNA)
RNA: CUGGAUCCGUACAGUGUAAGGGUGAGUGGUUGGGUGUGUGGGUGUUGAUGUAGAACAAGAAUUCGA
- Kd [1]: 35.1 ± 1.8 nM
- Kd [2]: 3.2 ± 0.3 nM
- Kd [3]: 7.2 ± 2.5 nM

B4: RNA:DNA hybrid (45 bp) (DNA:RNA)
RNA: CUGGAUCCGUACAGUGUAAGGGUGAGUGGUUGGGUGUGUGGGUGU
DNA: ACACCCACACACCCAACCACTCACCCTTACACTGTACGGATCCAG
- Kd [1]: 27.7 ± 4.1 nM
- Kd [2]: 44 ± 5.9 nM
- Kd [3]: 31.7 ± 1.5 nM

Binder: CUGGAUCCGUACAGUGUAAGGGUGAGUGGUUGGGUGUGUGGGUGU (ssRNA) [45 nt RNA]
- Kd [2]: 6 ± 0.6 nM
- Kd [3]: 11.4 ± 1.2 nM

B5: RNA:DNA hybrid (25 bp) (DNA:RNA)
RNA: GCAGCUGGCACGACAGGUAUGAAUC
DNA: GATTCATACCTGTCGTGCCAGCTGC
- Kd [2]: 58.6 ± 1.5 nM
- Kd [3]: 43.3 ± 5.6 nM
